The source of these data is patent US20240294632A1 (XL PROTEIN, published 2024).

Assay [1] deals with T1, anti-Galectin-PAS(200) Fab fragment.
T1 construct: also called PASylated humanized anti-Galectin Fab fragment; PAS-Fab
Put plainly: SPR, MAb 1.1 covalently coupled to a CM5 chip, PASylated anti-Galectin Fab injected. For orientation: SPR reads the build-up and loss of mass on a sensor chip optically.

Assay [2] addresses T2, P/A #1(200)-IL1Ra.
T2 construct: PASylated fusion protein produced in E. coli; Biotinylated for the SPR measurements with Fabs
Description: Western blot of the fusion protein after SDS-PAGE; anti-mouse IgG Fc-AP, BCIP/NBT [F]. For orientation: Immunoblotting shows a protein as a band on a membrane.

For assay [3], the target named is T3, P/A #1 sequence.
T3 construct: in sentences on specificity it stands for P/A #1 polypeptides in general
T3 peptide: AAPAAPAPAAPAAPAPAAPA
Description: SPOT peptide array / hybridoma screening.

The target of assay [4] is T4, PAS #1(200)-IL1Ra.
T4 construct: PASylated fusion protein produced in E. coli; Biotinylated for the SPR measurements with Fabs
Description: SPR, MAb from hybridoma supernatant captured by anti-mouse antibody, antigen as analyte, bivalent analyte model.

Assay [5] addresses T5, IL1Ra (Kineret/Anakinra) (UniProt P18510 26-177).
T5 construct: Commercial drug product; also called non-PASylated protein version
Description: western blot, hybridoma supernatant 1:2000.

Assay [6] concerns the target T6, hu4D5-PAS #1(200).
T6 construct: Detected with anti-human kappa light chain antibody in the capture ELISA
Description: MAb capture ELISA, hybridoma supernatant on anti-mouse IgG Fc, antigen titrated.

The target in assay [7] is T7, APSA(200)-IL1Ra.
T7 construct: Fusion protein produced in E. coli; Labelled with DIG-NHS in the MAb capture ELISA
Put plainly: SPR, MAb from hybridoma supernatant captured by anti-mouse antibody, antigen as analyte, bivalent analyte model.

Assay [8] deals with T7, APSA(200)-IL1Ra. Put plainly: MAb capture ELISA, hybridoma supernatant on anti-mouse IgG Fc, DIG-labelled antigen titrated. Background: In an ELISA, binding on a coated surface is turned into a signal by an enzyme label.
For assay [9], the target named is T4, PAS #1(200)-IL1Ra. Put plainly: Western blot of the fusion protein after SDS-PAGE; anti-mouse IgG Fc-AP, BCIP/NBT [D].
The target in assay [10] is T3, P/A #1 sequence. Put plainly: ELISA and SPR with Fabs.
Assay [11] addresses IL1Ra-PAS#1(800). Description: ELISA, Fab titrated on IL1Ra-PAS#1(800) (x axis: Fab concentration).
The target of assay [12] is T8, StrepII-eGFP-PAS #1(200).
T8 construct: also called StrepII-eGFP-PAS #1(200) fusion protein
Put plainly: affinity chromatography on Fab coupled to a 1 ml HiTrap NHS column, elution with 1 M L-prolinamide; A280/A488 traces and SDS-PAGE of the fractions.

The target in assay [13] is T9, H1GA-PAS #1(200)-His6.
T9 construct: also called C-terminally PASylated Anticalin H1GA-PAS #1(200)-His6
T9 chain: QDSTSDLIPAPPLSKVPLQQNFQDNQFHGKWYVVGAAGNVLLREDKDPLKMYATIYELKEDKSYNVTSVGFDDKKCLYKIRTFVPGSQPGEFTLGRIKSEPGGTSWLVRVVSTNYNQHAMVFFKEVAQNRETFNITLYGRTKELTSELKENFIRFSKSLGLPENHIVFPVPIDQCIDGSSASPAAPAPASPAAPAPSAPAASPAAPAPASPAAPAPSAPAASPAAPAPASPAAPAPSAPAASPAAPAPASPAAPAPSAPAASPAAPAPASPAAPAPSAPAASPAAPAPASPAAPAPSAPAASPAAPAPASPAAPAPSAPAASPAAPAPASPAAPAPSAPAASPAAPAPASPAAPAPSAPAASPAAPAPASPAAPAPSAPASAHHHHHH
Put plainly: affinity chromatography of a periplasmic extract on Fab coupled to a 1 ml HiTrap column, elution with 1 M L-prolinamide; blank-corrected A280 trace and SDS-PAGE [B].

Assay [14] addresses T4, PAS #1(200)-IL1Ra. Description: SPR, biotinylated antigen on CAPture chip, Fab as analyte, 1:1 model.
The target in assay [15] is T10, PAS #1(600)-Leptin.
T10 chain: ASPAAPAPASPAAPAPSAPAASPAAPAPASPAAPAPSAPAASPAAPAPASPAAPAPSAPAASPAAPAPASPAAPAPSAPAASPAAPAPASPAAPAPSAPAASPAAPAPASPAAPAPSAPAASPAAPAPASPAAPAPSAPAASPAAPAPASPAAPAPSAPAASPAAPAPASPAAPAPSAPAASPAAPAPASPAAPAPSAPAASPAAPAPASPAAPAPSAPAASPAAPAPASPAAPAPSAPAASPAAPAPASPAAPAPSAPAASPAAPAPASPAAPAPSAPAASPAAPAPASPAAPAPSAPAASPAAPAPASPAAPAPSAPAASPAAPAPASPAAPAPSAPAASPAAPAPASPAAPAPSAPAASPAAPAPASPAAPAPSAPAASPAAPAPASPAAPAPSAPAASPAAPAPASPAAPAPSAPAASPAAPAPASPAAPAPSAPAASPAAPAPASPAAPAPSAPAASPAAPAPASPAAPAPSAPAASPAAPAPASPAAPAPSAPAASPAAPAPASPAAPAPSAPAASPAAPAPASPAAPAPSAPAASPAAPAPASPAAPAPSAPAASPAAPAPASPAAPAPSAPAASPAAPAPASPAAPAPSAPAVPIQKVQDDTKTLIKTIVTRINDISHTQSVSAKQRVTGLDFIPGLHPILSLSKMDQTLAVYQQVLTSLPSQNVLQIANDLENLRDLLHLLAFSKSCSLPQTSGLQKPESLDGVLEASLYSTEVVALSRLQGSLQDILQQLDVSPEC
Put plainly: ELISA, Fab titrated on PAS#1(600)-Leptin (x axis: Fab concentration).

The target of assay [16] is T10, PAS #1(600)-Leptin. Description: ELISA, antigen coated, Fab titrated.
Assay [17] has as its target P/A#1(600)-GMCSF. Put plainly: ELISA, Fab titrated on P/A#1(600)-GMCSF.

T5 sequence (P18510 26-177 limits assumed): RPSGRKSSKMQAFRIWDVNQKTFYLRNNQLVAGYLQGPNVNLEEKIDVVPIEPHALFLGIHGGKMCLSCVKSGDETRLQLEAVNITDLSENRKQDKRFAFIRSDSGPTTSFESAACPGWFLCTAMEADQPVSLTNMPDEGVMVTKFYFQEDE
T2 sequence (chain, as listed by the source limits assumed): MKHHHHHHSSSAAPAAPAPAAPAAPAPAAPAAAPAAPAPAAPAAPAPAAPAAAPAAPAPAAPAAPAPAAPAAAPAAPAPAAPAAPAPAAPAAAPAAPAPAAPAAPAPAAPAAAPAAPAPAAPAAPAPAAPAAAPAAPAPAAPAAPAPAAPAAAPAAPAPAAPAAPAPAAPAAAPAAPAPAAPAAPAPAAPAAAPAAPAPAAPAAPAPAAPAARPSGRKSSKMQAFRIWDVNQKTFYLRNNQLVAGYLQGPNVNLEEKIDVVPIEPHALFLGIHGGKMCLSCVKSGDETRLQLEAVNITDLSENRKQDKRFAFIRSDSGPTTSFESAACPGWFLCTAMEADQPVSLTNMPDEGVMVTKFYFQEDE
T1 sequence (chain, as listed by the source): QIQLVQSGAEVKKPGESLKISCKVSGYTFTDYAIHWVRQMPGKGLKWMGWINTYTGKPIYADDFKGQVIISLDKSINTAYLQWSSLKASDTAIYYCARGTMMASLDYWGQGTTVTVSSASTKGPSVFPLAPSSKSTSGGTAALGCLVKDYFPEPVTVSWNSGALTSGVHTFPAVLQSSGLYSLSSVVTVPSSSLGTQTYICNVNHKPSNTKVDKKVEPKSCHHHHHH

B1: Anti-PA(S) MAb 1.1 (antibody, V domains shown)
VH: QVQLKESGPGLVAPSQSLSITCTVSGFSLTGYGVNWVRQPPGKGLEWLGMIWGDGITDYNSALKSRLSISKDNSKSQVFLKMNSLQTDDTARYYCARDYYGRRYYAMDYWGQGTSVTVSS
VL: DIVLTQSPASLAVSLGQRATISCRASKSVSSSGYNYMFWYQQKPGQPPKLLIYLASNLESGVPDRFWGSGSGTDFTLNIHPVEEEDAATYYCQHSRELPLTFGAGTKLELKR
notes: Mouse monoclonal IgG from hybridoma (culture supernatant); also called anti-PAS 1.1 MAb; DSM ACC3365
For the molecule B1, the binding result in [1] is on record as “binds”; in [2], “no binding (tested: hybridoma supernatant diluted 1:2000)”; in [3], “no binding”; in assay [5] it was “no binding”. Besides, the Kd in assay [4] was determined as 1 nM; in assay [6] it was 0.037 nM.

B2: Anti-PA(S) MAb 3.1 (antibody, V domains shown)
VH: QVQLQQSGAELVRPGASVKLSCKALGYIFTDYEMHWVKQTPVHGLEWIGVIHPGSGNTVYNQKFQGKATLTADKSSSTAYMEVSSLTSEDSAVYYCNLWGRWGQGTTLTVSS
VL: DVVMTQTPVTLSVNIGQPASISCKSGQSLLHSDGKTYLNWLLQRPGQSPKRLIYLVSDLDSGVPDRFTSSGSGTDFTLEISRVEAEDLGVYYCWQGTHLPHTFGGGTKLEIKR
notes: Mouse monoclonal IgG from hybridoma (culture supernatant); also called DSM ACC3367
In the case of B2, the Kd was 0.019 nM in [7] and 0.118 nM in [8]. Moreover, the binding result is reported as “no binding” in assay [5] and “no binding (tested: hybridoma supernatant diluted 1:2000)” in [9].

B3: Fab fragment of Anti-PA(S) MAb 1.2 (Fab, V domains shown)
VH: QVQLVESGGGLVQPGGSLKLSCAASGFTFSSYGMSWVRQTPDKRLELVATINSNGGSTYYLDSVKGRFTISRDKAKNTLYLQMSSLKSEDTAMYYCVRGGSIYDGYDYAMDYWGQGTSVTVSS
VL: DIVLTQSPASLAVSLGQRATISCRASQSVSTSSYSYMHWFQQKPGQPPKLLIKYASNLESGVPARFSGSGSGTDFTLNIHPVEEEDTATYYCQHSWEIPLTFGAGTKLELKR
notes: also called Anti-PA(S) MAb 1.2 Fab; anti-PAS Fab 1.2
The EC50 (read off the curve) is the concentration that produces a half-maximal response. A low value points to greater potency. As for B3, the binding result is given as “no binding” in assay [10], “binds” in assay [12], “binds” in assay [13] and “no binding (tested: 4000 nM)” in [17]. Also, the entries for the “EC50 (read off the curve)” value in assay [11] and in assay [15] were around 200 nM and around 100 nM, respectively. In addition, the Kd in assay [14] amounted to 3700 nM; in assay [16], 123 nM.
